Reference: US20210139548A1 (published 2021)
*1 amine or outer side, *2 acyl side, *3 side chain or, on linkers, in order; H or OH if unused. Side-chain parts run from the residue outwards. The star is where a group is joined. C18 diacid = O=C(O)CCCCCCCCCCCCCCCCC(=O)*; γGlu = O=C(O)[C@H](CCC(=O)[*:2])N[*:1]; Isovaleryl = CC(C)CC(=O)*; AEEA = NCCOCCOCC(=O)O

T1: human neuropeptide Y2 receptor (human, UniProt P49146 1-381)
T1 construct: whole, on cells; also called hNPY2 receptor; hNPY2-R
T1 sequence (looked up): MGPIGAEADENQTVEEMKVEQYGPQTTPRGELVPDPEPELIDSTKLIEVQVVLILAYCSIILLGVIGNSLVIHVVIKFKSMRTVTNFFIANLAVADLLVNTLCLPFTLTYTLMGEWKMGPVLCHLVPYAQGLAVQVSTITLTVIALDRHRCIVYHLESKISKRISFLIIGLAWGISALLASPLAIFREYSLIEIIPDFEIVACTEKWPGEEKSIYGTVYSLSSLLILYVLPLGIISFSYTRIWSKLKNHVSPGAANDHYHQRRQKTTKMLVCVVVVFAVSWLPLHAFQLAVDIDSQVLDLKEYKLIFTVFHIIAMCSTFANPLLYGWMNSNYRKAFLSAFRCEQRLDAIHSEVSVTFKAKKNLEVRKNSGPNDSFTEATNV

B1: Compound 27 (peptide)
peptide: Isovaleryl-APEK([AEEA-AEEA-γGlu-C18 diacid])PPEDAEPEELQRYYVSLRHYYNWLTRQRY-NH2
SMILES: CC(C)CC(=O)N[C@@H](C)C(=O)N1CCC[C@H]1C(=O)N[C@@H](CCC(=O)O)C(=O)N[C@@H](CCCCNC(=O)COCCOCCNC(=O)COCCOCCNC(=O)CC[C@H](NC(=O)CCCCCCCCCCCCCCCCC(=O)O)C(=O)O)C(=O)N1CCC[C@H]1C(=O)N1CCC[C@H]1C(=O)N[C@@H](CCC(=O)O)C(=O)N[C@@H](CC(=O)O)C(=O)N[C@@H](C)C(=O)N[C@@H](CCC(=O)O)C(=O)N1CCC[C@H]1C(=O)N[C@@H](CCC(=O)O)C(=O)N[C@@H](CCC(=O)O)C(=O)N[C@@H](CC(C)C)C(=O)N[C@@H](CCC(N)=O)C(=O)N[C@@H](CCCNC(=N)N)C(=O)N[C@@H](Cc1ccc(O)cc1)C(=O)N[C@@H](Cc1ccc(O)cc1)C(=O)N[C@H](C(=O)N[C@@H](CO)C(=O)N[C@@H](CC(C)C)C(=O)N[C@@H](CCCNC(=N)N)C(=O)N[C@@H](Cc1c[nH]cn1)C(=O)N[C@@H](Cc1ccc(O)cc1)C(=O)N[C@@H](Cc1ccc(O)cc1)C(=O)N[C@@H](CC(N)=O)C(=O)N[C@@H](Cc1c[nH]c2ccccc12)C(=O)N[C@@H](CC(C)C)C(=O)N[C@H](C(=O)N[C@@H](CCCNC(=N)N)C(=O)N[C@@H](CCC(N)=O)C(=O)N[C@@H](CCCNC(=N)N)C(=O)N[C@@H](Cc1ccc(O)cc1)C(N)=O)[C@@H](C)O)C(C)C
B2: Compound 33 (peptide)
peptide: Isovaleryl-APEK([AEEA-AEEA-γGlu-C18 diacid])PEEPASPEELQRYYVELRHYYNWLTRQRY-NH2
SMILES: CC(C)CC(=O)N[C@@H](C)C(=O)N1CCC[C@H]1C(=O)N[C@@H](CCC(=O)O)C(=O)N[C@@H](CCCCNC(=O)COCCOCCNC(=O)COCCOCCNC(=O)CC[C@H](NC(=O)CCCCCCCCCCCCCCCCC(=O)O)C(=O)O)C(=O)N1CCC[C@H]1C(=O)N[C@@H](CCC(=O)O)C(=O)N[C@@H](CCC(=O)O)C(=O)N1CCC[C@H]1C(=O)N[C@@H](C)C(=O)N[C@@H](CO)C(=O)N1CCC[C@H]1C(=O)N[C@@H](CCC(=O)O)C(=O)N[C@@H](CCC(=O)O)C(=O)N[C@@H](CC(C)C)C(=O)N[C@@H](CCC(N)=O)C(=O)N[C@@H](CCCNC(=N)N)C(=O)N[C@@H](Cc1ccc(O)cc1)C(=O)N[C@@H](Cc1ccc(O)cc1)C(=O)N[C@H](C(=O)N[C@@H](CCC(=O)O)C(=O)N[C@@H](CC(C)C)C(=O)N[C@@H](CCCNC(=N)N)C(=O)N[C@@H](Cc1c[nH]cn1)C(=O)N[C@@H](Cc1ccc(O)cc1)C(=O)N[C@@H](Cc1ccc(O)cc1)C(=O)N[C@@H](CC(N)=O)C(=O)N[C@@H](Cc1c[nH]c2ccccc12)C(=O)N[C@@H](CC(C)C)C(=O)N[C@H](C(=O)N[C@@H](CCCNC(=N)N)C(=O)N[C@@H](CCC(N)=O)C(=O)N[C@@H](CCCNC(=N)N)C(=O)N[C@@H](Cc1ccc(O)cc1)C(N)=O)[C@@H](C)O)C(C)C
B3: Compound 34 (peptide)
peptide: Isovaleryl-APEK([AEEA-AEEA-γGlu-C18 diacid])PEEDASPEELQRYYVSTRHYYNWLTRQRY-NH2
SMILES: CC(C)CC(=O)N[C@@H](C)C(=O)N1CCC[C@H]1C(=O)N[C@@H](CCC(=O)O)C(=O)N[C@@H](CCCCNC(=O)COCCOCCNC(=O)COCCOCCNC(=O)CC[C@H](NC(=O)CCCCCCCCCCCCCCCCC(=O)O)C(=O)O)C(=O)N1CCC[C@H]1C(=O)N[C@@H](CCC(=O)O)C(=O)N[C@@H](CCC(=O)O)C(=O)N[C@@H](CC(=O)O)C(=O)N[C@@H](C)C(=O)N[C@@H](CO)C(=O)N1CCC[C@H]1C(=O)N[C@@H](CCC(=O)O)C(=O)N[C@@H](CCC(=O)O)C(=O)N[C@@H](CC(C)C)C(=O)N[C@@H](CCC(N)=O)C(=O)N[C@@H](CCCNC(=N)N)C(=O)N[C@@H](Cc1ccc(O)cc1)C(=O)N[C@@H](Cc1ccc(O)cc1)C(=O)N[C@H](C(=O)N[C@@H](CO)C(=O)N[C@H](C(=O)N[C@@H](CCCNC(=N)N)C(=O)N[C@@H](Cc1c[nH]cn1)C(=O)N[C@@H](Cc1ccc(O)cc1)C(=O)N[C@@H](Cc1ccc(O)cc1)C(=O)N[C@@H](CC(N)=O)C(=O)N[C@@H](Cc1c[nH]c2ccccc12)C(=O)N[C@@H](CC(C)C)C(=O)N[C@H](C(=O)N[C@@H](CCCNC(=N)N)C(=O)N[C@@H](CCC(N)=O)C(=O)N[C@@H](CCCNC(=N)N)C(=O)N[C@@H](Cc1ccc(O)cc1)C(N)=O)[C@@H](C)O)[C@@H](C)O)C(C)C
B4: Compound 32 (peptide)
peptide: Isovaleryl-APEK([AEEA-AEEA-γGlu-C18 diacid])PEEDTSPEELQRYEVSLRHYYNWLTRQRY-NH2
SMILES: CC(C)CC(=O)N[C@@H](C)C(=O)N1CCC[C@H]1C(=O)N[C@@H](CCC(=O)O)C(=O)N[C@@H](CCCCNC(=O)COCCOCCNC(=O)COCCOCCNC(=O)CC[C@H](NC(=O)CCCCCCCCCCCCCCCCC(=O)O)C(=O)O)C(=O)N1CCC[C@H]1C(=O)N[C@@H](CCC(=O)O)C(=O)N[C@@H](CCC(=O)O)C(=O)N[C@@H](CC(=O)O)C(=O)N[C@H](C(=O)N[C@@H](CO)C(=O)N1CCC[C@H]1C(=O)N[C@@H](CCC(=O)O)C(=O)N[C@@H](CCC(=O)O)C(=O)N[C@@H](CC(C)C)C(=O)N[C@@H](CCC(N)=O)C(=O)N[C@@H](CCCNC(=N)N)C(=O)N[C@@H](Cc1ccc(O)cc1)C(=O)N[C@@H](CCC(=O)O)C(=O)N[C@H](C(=O)N[C@@H](CO)C(=O)N[C@@H](CC(C)C)C(=O)N[C@@H](CCCNC(=N)N)C(=O)N[C@@H](Cc1c[nH]cn1)C(=O)N[C@@H](Cc1ccc(O)cc1)C(=O)N[C@@H](Cc1ccc(O)cc1)C(=O)N[C@@H](CC(N)=O)C(=O)N[C@@H](Cc1c[nH]c2ccccc12)C(=O)N[C@@H](CC(C)C)C(=O)N[C@H](C(=O)N[C@@H](CCCNC(=N)N)C(=O)N[C@@H](CCC(N)=O)C(=O)N[C@@H](CCCNC(=N)N)C(=O)N[C@@H](Cc1ccc(O)cc1)C(N)=O)[C@@H](C)O)C(C)C)[C@@H](C)O
B5: Compound 28 (peptide)
peptide: Isovaleryl-APEK([AEEA-AEEA-γGlu-C18 diacid])PEEDTSPEELQRYYVELRHYYNWLTRQRY-NH2
SMILES: CC(C)CC(=O)N[C@@H](C)C(=O)N1CCC[C@H]1C(=O)N[C@@H](CCC(=O)O)C(=O)N[C@@H](CCCCNC(=O)COCCOCCNC(=O)COCCOCCNC(=O)CC[C@H](NC(=O)CCCCCCCCCCCCCCCCC(=O)O)C(=O)O)C(=O)N1CCC[C@H]1C(=O)N[C@@H](CCC(=O)O)C(=O)N[C@@H](CCC(=O)O)C(=O)N[C@@H](CC(=O)O)C(=O)N[C@H](C(=O)N[C@@H](CO)C(=O)N1CCC[C@H]1C(=O)N[C@@H](CCC(=O)O)C(=O)N[C@@H](CCC(=O)O)C(=O)N[C@@H](CC(C)C)C(=O)N[C@@H](CCC(N)=O)C(=O)N[C@@H](CCCNC(=N)N)C(=O)N[C@@H](Cc1ccc(O)cc1)C(=O)N[C@@H](Cc1ccc(O)cc1)C(=O)N[C@H](C(=O)N[C@@H](CCC(=O)O)C(=O)N[C@@H](CC(C)C)C(=O)N[C@@H](CCCNC(=N)N)C(=O)N[C@@H](Cc1c[nH]cn1)C(=O)N[C@@H](Cc1ccc(O)cc1)C(=O)N[C@@H](Cc1ccc(O)cc1)C(=O)N[C@@H](CC(N)=O)C(=O)N[C@@H](Cc1c[nH]c2ccccc12)C(=O)N[C@@H](CC(C)C)C(=O)N[C@H](C(=O)N[C@@H](CCCNC(=N)N)C(=O)N[C@@H](CCC(N)=O)C(=O)N[C@@H](CCCNC(=N)N)C(=O)N[C@@H](Cc1ccc(O)cc1)C(N)=O)[C@@H](C)O)C(C)C)[C@@H](C)O

Target: T1, human neuropeptide Y2 receptor
Experiment: radioligand competition (125I-PYY(1-36)), hNPY2R membranes
Procedure, shortened: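 Commercial human Y2 receptor membranes (0.5 μg protein/well) were incubated with peptide for 2 h at room temperature in 50 mM HEPES, 5 mM MgCl₂, 1 mM CaCl₂, pH 7.4, with 0.2% ovalbumin. Bound radioligand was separated on PEI-soaked GF/C filters and counted by scintillation, and IC₅₀ came from nonlinear sigmoidal regression.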

Binder | Ki
B1 | 0.96 nM
B2 | 0.45 nM
B3 | 6.4 nM
B4 | 4.84 nM
B5 | 6.03 nM
